Experimental data taken from the supplement of paper PMC9112550, “Optimization of the antimicrobial peptide Bac7 by deep mutational scanning” (BMC Biology, 2022).

What follows are sequences tested on Escherichia coli TOP10 (assay: shrunken log2 fold change of peptide-encoding DNA abundance (4.5 h post-induction vs induction); higher = less antimicrobial activity (less host growth inhibition)). Details: time post-induction: 4.5 h; library: site-saturation at positions 5, 18, 19, 20.
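Note: peptides expressed intracellularly from a pBAD plasmid library in pooled LB shake-flask culture, induced with 0.3% L-arabinose, DNA abundance read by NGS, three biological replicates, DESeq2 with apeglm shrinkage.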

Sequence	shrunken log2 fold change
RRIRERPPRLPRPRPRPCYVPRP	-0.716
RRIRVRPPRLPRPRPRPQIFPRP	-0.0538
RRIRGRPPRLPRPRPRPPNTPRP	0.516
RRIRFRPPRLPRPRPRPMTGPRP	-0.0757
RRIRIRPPRLPRPRPRPAPMPRP	0.0013
RRIRQRPPRLPRPRPRPVIDPRP	-0.016
RRIRRRPPRLPRPRPRPMAGPRP	0.111
RRIRPRPPRLPRPRPRPQEQPRP	-0.0215
RRIRNRPPRLPRPRPRPYKPPRP	-0.0731
RRIRSRPPRLPRPRPRPIEVPRP	0.0392
RRIRERPPRLPRPRPRPITEPRP	-0.159
RRIRKRPPRLPRPRPRPNDEPRP	0.179
RRIRYRPPRLPRPRPRPAYRPRP	-0.0312
RRIRKRPPRLPRPRPRPCICPRP	-0.14
RRIRWRPPRLPRPRPRPIGIPRP	-0.0434
RRIRLRPPRLPRPRPRPKRAPRP	0.203
RRIRARPPRLPRPRPRPNATPRP	1.97
RRIRERPPRLPRPRPRPRDQPRP	0.424
RRIRERPPRLPRPRPRPDNKPRP	-0.75
RRIRVRPPRLPRPRPRPCPHPRP	-0.0391
RRIRTRPPRLPRPRPRPKHIPRP	-0.823
RRIRDRPPRLPRPRPRPQWPPRP	-0.0971

Sequence	shrunken log2 fold change
RRIRCRPPRLPRPRPRPVYHPRP	-0.53
RRIRTRPPRLPRPRPRPPHNPRP	0.0332
RRIRSRPPRLPRPRPRPFQNPRP	-0.3
RRIRQRPPRLPRPRPRPEMEPRP	0.0171
RRIRVRPPRLPRPRPRPQQKPRP	-0.027
RRIRYRPPRLPRPRPRPDYWPRP	-0.134
RRIRCRPPRLPRPRPRPSTCPRP	-0.355
RRIRERPPRLPRPRPRPNKYPRP	0.202
RRIRFRPPRLPRPRPRPMSTPRP	-0.386
RRIRWRPPRLPRPRPRPMISPRP	0.248
RRIRSRPPRLPRPRPRPNYLPRP	-0.071
RRIRCRPPRLPRPRPRPKSPPRP	-0.1
RRIRVRPPRLPRPRPRPTGPPRP	0.164
RRIRNRPPRLPRPRPRPNNTPRP	-0.798
RRIRHRPPRLPRPRPRPPFAPRP	0.564
RRIRVRPPRLPRPRPRPHSQPRP	0.288
RRIRCRPPRLPRPRPRPECPPRP	0.293
RRIRFRPPRLPRPRPRPYIDPRP	-0.348
RRIRPRPPRLPRPRPRPRWMPRP	0.412
RRIRFRPPRLPRPRPRPLEFPRP	-0.0464
RRIRGRPPRLPRPRPRPWLFPRP	0.458
RRIRQRPPRLPRPRPRPNLGPRP	0.0673

Sequence	shrunken log2 fold change
RRIRRRPPRLPRPRPRPYQIPRP	0.022
RRIRQRPPRLPRPRPRPEFMPRP	-0.0743
RRIRWRPPRLPRPRPRPTYDPRP	1.48
RRIRPRPPRLPRPRPRPPGRPRP	0.567
RRIRVRPPRLPRPRPRPVLLPRP	-0.35
RRIRIRPPRLPRPRPRPCIWPRP	-0.278
RRIRERPPRLPRPRPRPDCIPRP	0.0113
RRIRERPPRLPRPRPRPFVLPRP	-0.358
RRIRMRPPRLPRPRPRPPDSPRP	0.198
RRIRIRPPRLPRPRPRPCRAPRP	-0.284
RRIRERPPRLPRPRPRPEAMPRP	0.0431
RRIRERPPRLPRPRPRPASGPRP	0.133
RRIRPRPPRLPRPRPRPVDRPRP	0.115
RRIRLRPPRLPRPRPRPPFCPRP	0.701
RRIRHRPPRLPRPRPRPSICPRP	0.0424
RRIRRRPPRLPRPRPRPLGGPRP	0.376
RRIRERPPRLPRPRPRPGNKPRP	-0.00852
RRIRSRPPRLPRPRPRPIYFPRP	-0.397
RRIRARPPRLPRPRPRPDHNPRP	-0.154
RRIRPRPPRLPRPRPRPTKMPRP	0.0417
RRIRGRPPRLPRPRPRPQINPRP	0.324
RRIRWRPPRLPRPRPRPPDQPRP	0.694

Sequence	shrunken log2 fold change
RRIRPRPPRLPRPRPRPYVIPRP	-0.401
RRIRVRPPRLPRPRPRPSGTPRP	-0.298
RRIRIRPPRLPRPRPRPVVFPRP	0.0165
RRIRTRPPRLPRPRPRPYRTPRP	0.0638
RRIRHRPPRLPRPRPRPGKNPRP	-0.0444
RRIRERPPRLPRPRPRPTHDPRP	-0.141
RRIRGRPPRLPRPRPRPVRCPRP	0.814
RRIRPRPPRLPRPRPRPHEKPRP	-0.0384
RRIRNRPPRLPRPRPRPFSVPRP	-0.678
RRIRVRPPRLPRPRPRPLEFPRP	-0.114
RRIRERPPRLPRPRPRPWQVPRP	0.0371
RRIRHRPPRLPRPRPRPEHMPRP	-0.177
RRIRHRPPRLPRPRPRPLFHPRP	-0.462
RRIRQRPPRLPRPRPRPTLEPRP	0.0818
RRIRARPPRLPRPRPRPWTFPRP	-0.0754
RRIRIRPPRLPRPRPRPQFCPRP	-0.32
RRIRKRPPRLPRPRPRPYLHPRP	-0.31
RRIRGRPPRLPRPRPRPYPAPRP	0.497
RRIRPRPPRLPRPRPRPMMRPRP	0.224
RRIRFRPPRLPRPRPRPDEVPRP	-0.00705
RRIRKRPPRLPRPRPRPFETPRP	0.163
RRIRDRPPRLPRPRPRPHQSPRP	0.0679

Sequence	shrunken log2 fold change
RRIRWRPPRLPRPRPRPDEYPRP	-0.0763
RRIRRRPPRLPRPRPRPAWVPRP	1.75
RRIRIRPPRLPRPRPRPRVWPRP	0.618
RRIRKRPPRLPRPRPRPWSLPRP	0.0414
RRIRTRPPRLPRPRPRPFHQPRP	-0.126
RRIRARPPRLPRPRPRPEDEPRP	0.182
RRIRKRPPRLPRPRPRPDYWPRP	0.0865
RRIRQRPPRLPRPRPRPDAGPRP	-0.0738
RRIRVRPPRLPRPRPRPLQGPRP	-0.292
RRIRRRPPRLPRPRPRPPMRPRP	1.03
RRIRPRPPRLPRPRPRPIFMPRP	-0.0036
RRIRIRPPRLPRPRPRPIPWPRP	-0.533
RRIRDRPPRLPRPRPRPQQLPRP	-0.0103
RRIRIRPPRLPRPRPRPAGSPRP	-0.0214
RRIRLRPPRLPRPRPRPVSCPRP	-0.0041
RRIRARPPRLPRPRPRPPPHPRP	1.03
RRIRNRPPRLPRPRPRPTFWPRP	0.323
RRIRDRPPRLPRPRPRPDIIPRP	0.221
RRIRTRPPRLPRPRPRPVWNPRP	-0.117
RRIRPRPPRLPRPRPRPIYPPRP	-0.269
RRIRIRPPRLPRPRPRPMAMPRP	-0.024
